Experimental findings from patent US20220064294A1 (ARCUS BIOSCIENCES, published 2022) are described below.

Assay [1] deals with T1, human TIGIT, full length, on cells (human, UniProt Q495A1 22-244).
T1 sequence: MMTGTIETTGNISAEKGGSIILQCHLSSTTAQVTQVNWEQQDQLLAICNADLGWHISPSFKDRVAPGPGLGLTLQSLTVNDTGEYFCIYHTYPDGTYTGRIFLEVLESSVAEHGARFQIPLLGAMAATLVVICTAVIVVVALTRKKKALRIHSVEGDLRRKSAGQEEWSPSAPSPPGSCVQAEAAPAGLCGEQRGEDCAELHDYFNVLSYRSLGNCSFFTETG
The experiment in a line: cell-based or functional assay.

For assay [2], the target named is T1, human TIGIT, full length, on cells. The experiment in a line: flow cytometry, inhibition of hCD155-Fc binding to CHO-hTIGIT cells. As to the method: The activity of Hu24F8.1-IgG1.AA and Hu24F8.2-IgG1.AA to block the interaction of TIGIT with CD155 was analyzed by flow cytometry using CHO cells stably overexpressing human TIGIT (CHO-hTIGIT) and human CD155-Fc fusion recombinant soluble protein (hCD155-Fc), as described in Example 1. […] The IC₅₀ for Hu24F8.1-IgG1.AA to block the TIGIT-CD155 interaction was 0.68 nM, and for Hu24F8.2-IgG1.AA it was 0.67 nM.

Another assay has as its target T2, cTIGIT-His (cynomolgus monkey).
T2 construct: also called His-tagged cyno TIGIT protein extracellular domain; soluble cTIGIT-His
T2 chain: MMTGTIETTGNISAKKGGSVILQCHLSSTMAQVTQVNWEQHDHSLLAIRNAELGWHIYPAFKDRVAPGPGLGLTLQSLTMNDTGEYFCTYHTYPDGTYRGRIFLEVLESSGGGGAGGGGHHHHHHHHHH
In words: SPR, Biacore T200, antibody captured on anti-human IgG chip, cTIGIT-His as analyte. On the procedure:
(§1) The purified, full-length antibodies Hu24F8.1-IgG1.AA (containing VH1+VL2) and Hu24F8.2-IgG1.AA (containing VH2+VL2), together with the full-length chimera antibody of 24F8 mouse VH+VL and human IgG1/kappa constant domains (Ch24F8), were analyzed by SPR using a Biacore T200 instrument with antibody capture using an anti-human IgG coated chip and soluble hTIGIT-His or cTIGIT-His as the analyte.
On the technique in general: Surface plasmon resonance follows binding to a sensor surface in real time, without labels.

In a further assay the target is T3, hTIGIT-His (human).
T3 construct: also called His-tagged human TIGIT protein extracellular domain; soluble hTIGIT-His
T3 chain: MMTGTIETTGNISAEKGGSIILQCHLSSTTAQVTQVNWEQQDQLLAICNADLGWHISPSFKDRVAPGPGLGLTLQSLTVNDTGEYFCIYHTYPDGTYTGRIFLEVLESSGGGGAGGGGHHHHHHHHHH
The experiment in a line: SPR, Biacore T200, antibody captured on anti-human IgG chip, hTIGIT-His as analyte. As to the method: as §1

The target of assay [3] is T4, cynomolgus monkey TIGIT, full length, on cells (cynomolgus monkey).
T4 construct: Whole entry of 312 amino acids; also called cyno TIGIT; cTIGIT
In words: flow cytometry on stable CHO-K1 cells expressing cyno TIGIT (clone C10); cyno TIGIT, CHO-K1 clone C10, n=6. As to the method: (§2) Binding of antibodies Hu24F8.1-IgG1.AA and Hu24F8.2-IgG1.AA to TIGIT expressed on cell surface was examined by flow cytometry. Cells expressing TIGIT on cell surface were collected and incubated in 100 μL of HBSS Buffer in the presence (or absence) of various concentrations of antibody for 1 hr at 4° C. After washing with HBSS, antibody binding on cells was detected with 2 μg/mL of Alexa488-labeled goat anti-human IgG antibody (ThermoFisher Scientific, Cat #A-11013) for 30 min at 4° C. Cells were then washed and resuspended in PBS and subjected to flow cytometry using a Attune NxT flow cytometer (ThermoFisher Scientific, Waltham, Mass.). GeoMean of fluorescence intensity was obtained for the whole single cell population, and for transient transfection, non-transfected cells were used to gate for the positive binding cell population to obtain percent of positive cells. Data was calculated by GraphPad Prism using the standard 4-parameter curve fitting.
(§3) Stable CHO-K1 cell lines expressing human TIGIT (clone 2A7) and cyno TIGIT (clone C10) were used to test Hu24F8.1-IgG1.AA and Hu24F8.2-IgG1.AA for their binding to human TIGIT and cyno TIGIT, respectively, as described above. […] Hu24F8.2-IgG1.AA bound to human TIGIT with an EC₅₀ 0.29±0.15 nM (n=8) (FIG. 3A) and to cyno TIGIT with an EC₅₀ of 0.35±0.16 nM (n=6) (FIG. 3B).

The target in assay [4] is T1, human TIGIT, full length, on cells. The experiment in a line: flow cytometry on stable CHO-K1 cells expressing human TIGIT (clone 2A7); human TIGIT, CHO-K1 clone 2A7, n=8. On the procedure:
as §2, §3
A general note: A flow cytometer gives signals particle by particle.

B1: Hu24F8.1-IgG1.AA (antibody, V domains shown)
VH: QVQLQESGPGLVKPSETLSLTCAVYGYSITSGYSWHWIRQPPGKGLEWIGYVHYSGSTNYNPSLKSRVTISVDTSKNQFSLKLSSVTAADTAVYYCARMDYGNYGGAMDYWGQGTLVTVSS
VL: EIVMTQSPATLSVSPGERATLSCKASQDVRTAVAWYQQKPGQAPRLLIYSASYRYTGIPARFSGSGSGTEFTLTISSLQSEDFAVYYCQQYYSTQWTFGGGTKVEIKR
notes: IgG1/kappa; also called Hu24F8.1 (VH1+VL2), IgG1/kappa with L234A/L235A
B1: the “EC50 of luciferase reporter activity, TIGIT/CD155 Blockade Bioassay (Jurkat cells overexpressing TIGIT with CD155 aAPC/CHO-K1 cells)” value in assay [1] was determined as 3.35 nM. The same molecule had an IC50 in assay [2] of 0.68 nM. In the assay with cTIGIT-His, this molecule came in with a dissociation constant Kd of 1.74 nM, a koff of 0.0014 s⁻¹ and a kon of 806000 M⁻¹ s⁻¹. In the assay with hTIGIT-His, this molecule showed a Kd of 0.144 nM, a koff of 0.000145 s⁻¹ and a kon of 1.01e+06 M⁻¹ s⁻¹. This molecule also registered a 50% effective concentration (EC50) in assay [3] of 0.237 nM. Besides, the EC50 in assay [4] amounted to 0.447 nM.

By IC50 is commonly meant the concentration that gives 50% inhibition. As a reminder, the Kd is the equilibrium constant for the complex coming apart. The koff is the rate constant with which the complex falls apart. What is called kon is the rate constant with which the complex forms. The term EC50 denotes the concentration at which the effect is half-maximal.
